# Source: patent US20040087777A1
# Tests used:
# Assay in all cases: rNET
# … analog, Residue 3 = K = target: … analog, Residue 3 = K
# … analog, Residue 1 = V = target: … analog, Residue 1 = V
# … analog, Residue 1 = H = target: … analog, Residue 1 = H
# … analog, Residue 1 = R = target: … analog, Residue 1 = R
substance,measurement,setting,value
murine monoclonal antibody 3D6,OD,"… analog, Residue 3 = K",0.053 OD
same,OD,"… analog, Residue 1 = V",0.057 OD
same,OD,"… analog, Residue 1 = H",0.054 OD
same,OD,"… analog, Residue 1 = R",0.056 OD
